According to article PMC9648850:

Tested on: RtrC (Caulobacter crescentus (NA1000?))
Assay: EMSA
Conditions: 200 mM NaCl, 50 ng/ul poly(dI-dC), EMSA: 32.5 mM Tris pH 8 (at 4 C), 200 mM NaCl (chases: 30 mM Tris, 150 mM NaCl), 1 mM EDTA, 30% glycerol, 1 mM DTT, 10 ug/ml BSA, 20 C …

hfiA promoter probe, labeled
Kd: 45 nM
